Test results published in patent US20240092842A1.

Molecular target: PME crude extract of Arabidopsis thaliana stem (Arabidopsis thaliana)
Assay: cell-based or functional assay

PME enzyme activity in the reaction solution (pectin / bromothymol blue, OD 620 nm) at PME:GhPMEI39 1:2: 24%
Substance: recombinant GhPMEI39 protein (pColdTF-GhPMEI39 fusion protein with 6xHis-Tag, expressed in Escherichia coli BL21 (DE3))
